{"source": "patent US20190241648A1", "about": "(STATEN BIOTECHNOLOGY B V, published 2019)", "binders": {"B1": {"name": "anti-ApoC3 antibody 14C7 (antibody, V domains shown)", "VH": "QVQVQESGPGLVKPSQTLSLTCTVSGGSITTNSYYWSWIRQPPGKGLEWMGAIDYSGDTYYSPSLKSRTSISRDTSKNQFTLQLTSVTPEDTAVYYCVSRIPTGEYWGQGTQVTVSS", "VL": "QTVVTQEPSLSVSPGGTVTLTCGLNSGSVTSSNYPDWYQQTPGQAPRLLIYNTNSRHSGVPSRFSGSISGNKAALTITGAQPEDEADYYCALYMGSDSVVFGGGTHLTVL", "notes": "it was detected with goat anti-human IgG (Fc); also called mAb 14C7; llama antibody 14C7"}}, "experiment_in_all_cases": "peptide microarray", "key": {"[1]": {"biological_target": "T1, ApoC3 peptide … A39C (human, cyclic constrained)", "T1 peptide": "CRGWVTDGFSSLK", "how_it_was_run": "(§1)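 Peptide microarrays of ApoC3-derived peptides incubated with antibody samples, then stained with goat anti-human IgG (Fc) DyLight680 (1:5000) and anti-HA DyLight800 (1:2000) control. Read-out by fluorescence scanning at intensities 7/7 (red/green); a secondary-only pre-stain checked background, HA frame peptides served as quality control.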"}, "[2]": {"biological_target": "T2, ApoC3 peptide … F47M (human, not fully specified (bridges); also: cyclic constrained)", "T2 peptide": "ARGWVTDGMSSLK", "how_it_was_run": "as §1"}, "[3]": {"biological_target": "T3, ApoC3 peptide … G46W (human, thioether (positions not given here); also: cyclic constrained)", "T3 peptide": "ARGWVTDWFSSLK", "how_it_was_run": "as §1"}, "[4]": {"biological_target": "T4, ApoC3 peptide … W42L (human, not fully specified (bridges); also: cyclic constrained)", "T4 peptide": "ARGLVTDGFSSLK", "how_it_was_run": "as §1"}, "[5]": {"biological_target": "T5, ApoC3 peptide … K51P (human, not fully specified; cyclic constrained)", "T5 peptide": "ARGWVTDGFSSLP", "how_it_was_run": "as §1"}, "[6]": {"biological_target": "ApoC3 peptide … S48I (human, cyclic constrained)", "how_it_was_run": "as §1"}, "[7]": {"biological_target": "T6, ApoC3 peptide … A39R (human, not fully specified (bridges); also: cyclic constrained)", "T6 peptide": "RRGWVTDGFSSLK", "how_it_was_run": "as §1"}, "[8]": {"biological_target": "T7, ApoC3 peptide … F47C (human, not fully specified (bridges); also: cyclic constrained)", "T7 peptide": "ARGWVTDGCSSLK", "how_it_was_run": "as §1"}, "[9]": {"biological_target": "T8, ApoC3 peptide … G46M (human, not fully specified (bridges); also: cyclic constrained)", "T8 peptide": "ARGWVTDMFSSLK", "how_it_was_run": "as §1"}, "[10]": {"biological_target": "ApoC3 peptide … S48P (human, cyclic constrained)", "how_it_was_run": "as §1"}, "[11]": {"biological_target": "T9, ApoC3 peptide … K51D (human, thioether (positions not given here); also: cyclic constrained)", "T9 peptide": "ARGWVTDGFSSLD", "how_it_was_run": "as §1"}, "[12]": {"biological_target": "T10, ApoC3 peptide … D45M (human, cyclic constrained)", "T10 peptide": "ARGWVTMGFSSLK", "how_it_was_run": "as §1"}, "[13]": {"biological_target": "T11, ApoC3 peptide … A39F (human, cyclic constrained)", "T11 peptide": "FRGWVTDGFSSLK", "how_it_was_run": "as §1"}, "[14]": {"biological_target": "T12, ApoC3 peptide … K51C (human, thioether (positions not given here); also: cyclic constrained)", "T12 peptide": "ARGWVTDGFSSLC", "how_it_was_run": "as §1"}, "[15]": {"biological_target": "T13, ApoC3 peptide … V43E (human, not fully specified; cyclic constrained)", "T13 peptide": "ARGWETDGFSSLK", "how_it_was_run": "as §1"}, "[16]": {"biological_target": "T14, ApoC3 peptide … D45F (human, not fully specified (bridges); also: cyclic constrained)", "T14 peptide": "ARGWVTFGFSSLK", "how_it_was_run": "as §1"}, "[17]": {"biological_target": "T15, ApoC3 peptide … L50T (human, not fully specified (bridges); also: cyclic constrained)", "T15 peptide": "ARGWVTDGFSSTK", "how_it_was_run": "as §1"}, "[18]": {"biological_target": "T16, ApoC3 peptide … G41C (human, also: cyclic constrained)", "T16 peptide": "ARCWVTDGFSSLK", "how_it_was_run": "as §1"}, "[19]": {"biological_target": "T17, ApoC3 peptide … G46S (human, thioether (positions not given here); also: cyclic constrained)", "T17 peptide": "ARGWVTDSFSSLK", "how_it_was_run": "as §1"}, "[20]": {"biological_target": "ApoC3 peptide … S49C (human, cyclic constrained)", "how_it_was_run": "as §1"}, "[21]": {"biological_target": "T18, ApoC3 peptide … R40S (human, not fully specified (bridges); also: cyclic constrained)", "T18 peptide": "ASGWVTDGFSSLK", "how_it_was_run": "as §1"}, "[22]": {"biological_target": "T19, ApoC3 peptide … L50P (human, not fully specified (bridges); also: cyclic constrained)", "T19 peptide": "ARGWVTDGFSSPK", "how_it_was_run": "as §1"}, "[23]": {"biological_target": "T20, ApoC3 peptide … S49N (human, cyclic constrained)", "T20 peptide": "ARGWVTDGFSNLK", "how_it_was_run": "as §1"}, "[24]": {"biological_target": "T21, ApoC3 peptide … W42C (human, not fully specified (bridges); also: cyclic constrained)", "T21 peptide": "ARGCVTDGFSSLK", "how_it_was_run": "as §1"}, "[25]": {"biological_target": "T22, ApoC3 peptide … T44E (human, not fully specified (bridges); also: cyclic constrained)", "T22 peptide": "ARGWVEDGFSSLK", "how_it_was_run": "as §1"}, "[26]": {"biological_target": "T23, ApoC3 peptide … A39P (human, cyclic constrained)", "T23 peptide": "PRGWVTDGFSSLK", "how_it_was_run": "as §1"}, "[27]": {"biological_target": "T24, ApoC3 peptide … L50W (human, not fully specified (bridges); also: cyclic constrained)", "T24 peptide": "ARGWVTDGFSSWK", "how_it_was_run": "as §1"}, "[28]": {"biological_target": "T25, ApoC3 peptide … V43Y (human, not fully specified (bridges); also: cyclic constrained)", "T25 peptide": "ARGWYTDGFSSLK", "how_it_was_run": "as §1"}, "[29]": {"biological_target": "T26, ApoC3 peptide … L50H (human, not fully specified; cyclic constrained)", "T26 peptide": "ARGWVTDGFSSHK", "how_it_was_run": "as §1"}, "[30]": {"biological_target": "T27, ApoC3 peptide … V43C (human, not fully specified; cyclic constrained)", "T27 peptide": "ARGWCTDGFSSLK", "how_it_was_run": "as §1"}, "[31]": {"biological_target": "T28, ApoC3 peptide … G46N (human, not fully specified (bridges); also: cyclic constrained)", "T28 peptide": "ARGWVTDNFSSLK", "how_it_was_run": "as §1"}}, "note": "Ends that are not written are not given here.", "data": [{"binder": "B1", "values": [{"measurement": "% of binding to wild-type peptide", "setting": "[1]", "value": 77.5, "unit": "%"}, {"measurement": "% of binding to wild-type peptide", "setting": "[2]", "value": 0, "unit": "%"}, {"measurement": "% of binding to wild-type peptide", "setting": "[3]", "value": 0, "unit": "%"}, {"measurement": "% of binding to wild-type peptide", "setting": "[4]", "value": 312, "unit": "%"}, {"measurement": "% of binding to wild-type peptide", "setting": "[5]", "value": 0.24, "unit": "%"}, {"measurement": "% of binding to wild-type peptide", "setting": "[6]", "value": 23.6, "unit": "%"}, {"measurement": "% of binding to wild-type peptide", "setting": "[7]", "value": 89.4, "unit": "%"}, {"measurement": "% of binding to wild-type peptide", "setting": "[8]", "value": 0, "unit": "%"}, {"measurement": "% of binding to wild-type peptide", "setting": "[9]", "value": 0, "unit": "%"}, {"measurement": "% of binding to wild-type peptide", "setting": "[10]", "value": 0.06, "unit": "%"}, {"measurement": "% of binding to wild-type peptide", "setting": "[11]", "value": 0, "unit": "%"}, {"measurement": "% of binding to wild-type peptide", "setting": "[12]", "value": 21, "unit": "%"}, {"measurement": "% of binding to wild-type peptide", "setting": "[13]", "value": 78.2, "unit": "%"}, {"measurement": "% of binding to wild-type peptide", "setting": "[14]", "value": 0, "unit": "%"}, {"measurement": "% of binding to wild-type peptide", "setting": "[15]", "value": 0, "unit": "%"}, {"measurement": "% of binding to wild-type peptide", "setting": "[16]", "value": 0, "unit": "%"}, {"measurement": "% of binding to wild-type peptide", "setting": "[17]", "value": 0, "unit": "%"}, {"measurement": "% of binding to wild-type peptide", "setting": "[18]", "value": 14.8, "unit": "%"}, {"measurement": "% of binding to wild-type peptide", "setting": "[19]", "value": 0, "unit": "%"}, {"measurement": "% of binding to wild-type peptide", "setting": "[20]", "value": 0, "unit": "%"}, {"measurement": "% of binding to wild-type peptide", "setting": "[21]", "value": 54.7, "unit": "%"}, {"measurement": "% of binding to wild-type peptide", "setting": "[22]", "value": 0, "unit": "%"}, {"measurement": "% of binding to wild-type peptide", "setting": "[23]", "value": 0, "unit": "%"}, {"measurement": "% of binding to wild-type peptide", "setting": "[24]", "value": 61.6, "unit": "%"}, {"measurement": "% of binding to wild-type peptide", "setting": "[25]", "value": 0, "unit": "%"}, {"measurement": "% of binding to wild-type peptide", "setting": "[26]", "value": 166, "unit": "%"}, {"measurement": "% of binding to wild-type peptide", "setting": "[27]", "value": 17.7, "unit": "%"}, {"measurement": "% of binding to wild-type peptide", "setting": "[28]", "value": 230, "unit": "%"}, {"measurement": "% of binding to wild-type peptide", "setting": "[29]", "value": 0, "unit": "%"}, {"measurement": "% of binding to wild-type peptide", "setting": "[30]", "value": 0.12, "unit": "%"}, {"measurement": "% of binding to wild-type peptide", "setting": "[31]", "value": 10.4, "unit": "%"}]}]}
